From patent US20190351049A1 (Regeneron, published 2019) come the findings set out here.

To fix the notation:
B1: H1H15228P2 (antibody, V domains shown)
VH: EVQLVESGGGLVQPGGSLRLSCAVFGFTFSGYAMSWVRQAPGKGLEWVSAISGGGGSTYYTDSVKGRFTISRDNSKNTLYLQMNSLRAEDTAVYYCASYWNNGMDVWGQGTTVTVSS
VL: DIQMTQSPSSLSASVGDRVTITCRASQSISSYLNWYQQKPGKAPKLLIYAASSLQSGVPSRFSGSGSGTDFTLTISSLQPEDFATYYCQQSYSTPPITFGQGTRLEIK
B2: H1H15237P2 (antibody, V domains shown)
VH: EVQLVESGGGLVQPGGSLRLSCAASGFTSNSYPMSWVRQAPGKGLEWVSGISGRGGNTYYADSVKGRFTISRDNSKNTLYLQMNSLRVEDTAVYYCAETGTAFDYWGQGTLVTVSS
VL: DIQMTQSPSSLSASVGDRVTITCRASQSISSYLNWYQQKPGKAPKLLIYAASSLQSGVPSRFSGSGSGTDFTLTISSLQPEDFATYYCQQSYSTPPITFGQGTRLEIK
B3: H1H15249P2 (antibody, V domains shown)
VH: QLQLQESGPGLVKPSETLSLTCTVSGGSISNNNYYWGWIRQPPGKGLDWIGSIYYSGNTYYNPSLKSRVTISVDTSKNQFSLKMSSVTATDTALYYCARQGADHNWVDPWGQGTLVTVSS
VL: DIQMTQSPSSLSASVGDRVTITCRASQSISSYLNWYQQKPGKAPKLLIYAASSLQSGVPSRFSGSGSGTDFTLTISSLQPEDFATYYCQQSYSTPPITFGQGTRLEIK
B4: H1H15203P (antibody, V domains shown)
VH: EVQLVESGGDLVQPGGSLRVSCAASGFTFSNYDMYWVRQAPGKGLEWVSVISGIGATTYYADSVKGRFTISRDNSKNTVFLQMNSLRAEDTAVYYCVKGGPIVATDYWGQGTLVTVSS
VL: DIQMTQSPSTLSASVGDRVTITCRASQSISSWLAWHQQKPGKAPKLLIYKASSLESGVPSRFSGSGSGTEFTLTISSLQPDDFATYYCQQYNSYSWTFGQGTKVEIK
B5: H1H15260P2 (antibody, V domains shown)
VH: QVQLQESGPGLVKPSETLSLTCSVSGGSITSSYWSWIRQPPGRGLEWIGYVYYYGTTKYNPSLKSRVTTSMDTSKNQFSLKLNSVTAADTAVYYCARLELLFDYWGQGTLVTVSS
VL: not shown
B6: H1H15231P2 (antibody, V domains shown)
VH: QLQLQESGPGLVKPSETLSLTCTVSGGSISSNTYYWGWIRQPPGKGLEWIGTIYYTGNTYYKSSLKSRVTISVDTSRNQFSLKLTSVTAADTAVYYCARQFADLNYVDYWGQGTLVTVSS
VL: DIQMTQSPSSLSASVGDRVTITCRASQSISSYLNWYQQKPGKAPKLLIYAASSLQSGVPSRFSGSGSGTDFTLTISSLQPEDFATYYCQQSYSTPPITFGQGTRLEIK
B7: H1H15264P2 (antibody, V domains shown)
VH: QLQLQESGPGLVKPSETLSLTCSVSGGSINNNNYYWGWIRQPPGRGLEWIGSFFYSGPTYYNPSLRSRVTISVDTSKNQFSLKLNSVTAADTAIYYCARQDGNYYPLFDYWGQGTLVTVSS
VL: not shown
B8: H1H15208P (antibody, V domains shown)
VH: EVQLVESGGDLVQPGGSLRLSCTASGFTFSNYEMNWVRQAPEKGLDWVSFISSSGGAIYYADSVKGRFTISRDNAKNSLYLQMNSLRAEDSAIYFCARSDSGGNSRYWGQGTLVTVSS
VL: DIQMTQSPSSVSASVGDRVTVTCRASQDISNWLVWYQQKPGKAPKFLIYAASSLQSGVPSRFSGSGSGTDFTLTISSLQPEDFATYYCQQANSFPPTFGGGTKVEIK
B9: H1H15188P (antibody, V domains shown)
VH: QVQLVQSGAEVKKPGSSVKVSCKASGGSFSVYAISWVRQAPGQGLEWMGGIIPIFGTANYAQKFQDRFTITTDESTSTAYMELSSLRSEDTAMYYCAREGDIVVLPAGKGGMDVWGQGTTVTVSS
VL: DIVMTQSPLSLPVTPGEPASISCRSSQSLLHGNGYNYLDWYLQKPGQSPQLLIYLVSHRASGVPDRFSGSGSGTDFTLKISRVEAEDVGVYYCMQALQSPWTFGQGTKVEIK
B10: H1H15233P2 (antibody, V domains shown)
VH: EVQLVESGGGLVQPGGSLRLSCAASGFSFSSYGMNWVRQAPGKGLEWVSAISGRGGNTYSADSVKGRFTISRDNSKNTLFLQMNGLRAEDSAFYYCAKVGTYSSSSPFDYWGQGTLVTVSS
VL: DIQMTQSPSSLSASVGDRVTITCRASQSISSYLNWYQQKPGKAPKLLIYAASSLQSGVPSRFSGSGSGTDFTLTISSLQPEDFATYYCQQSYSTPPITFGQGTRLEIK
B11: H1H15259P2 (antibody, V domains shown)
VH: QVQLVESGGGVVQPGRSLRLSCAASGFTFSNYGIHWVRQAPGKGLEWVAGIYYDGSNKYYGDSVKGRFTISRDNSKNTLYLQMNSLRAEDTAVYYCARDRGNNHYYHNNPYYYYHGLDVWGQGTTVTVSS
VL: not shown
B12: H1H15177P (antibody, V domains shown)
VH: EVQLVESGGGLVQPGGSLRLSCSASGFTFSSYDMSWVRQAPGKGLEWVSAIRGSGHTTYYADSVKGRFTISRDNSKNTLYLEMNSLRAEDTAVYYCVKDGSIVGFDPWGQGTLVTVSS
VL: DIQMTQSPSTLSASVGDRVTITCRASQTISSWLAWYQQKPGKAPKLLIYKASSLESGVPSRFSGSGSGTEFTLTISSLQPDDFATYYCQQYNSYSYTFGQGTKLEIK
B13: H1H15253P2 (antibody, V domains shown)
VH: EVQLVESGGGLVQPGGSLRLSCVVSGFTSRNYAMSWVRQAPGKGLEWVSAISGSGGSTYYADSVKGRFTISRDNPKNTLYLQMNSLRAEDTALYYCAEDPGTSFDYWGQGTLVTVSS
VL: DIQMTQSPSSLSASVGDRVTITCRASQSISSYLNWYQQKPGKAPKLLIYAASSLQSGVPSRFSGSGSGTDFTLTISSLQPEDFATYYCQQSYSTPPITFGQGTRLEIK
B14: H1H15215P (antibody, V domains shown)
VH: EVQLVESGGGLVQPGGSLRLSCAASGFTFSTYGMSWVRQAPGKGLEWVSTIIGSGYNTYYSDSVKGRFTMSRDNSKSTLYLQMNSLRAEDTAVYYCTKEGPIIGTTNWGQGTLVTVSS
VL: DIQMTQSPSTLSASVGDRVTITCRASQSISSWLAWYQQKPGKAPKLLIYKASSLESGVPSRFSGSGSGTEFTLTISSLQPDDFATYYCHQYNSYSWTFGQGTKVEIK

For one assay, the target named is MERS-CoV spike protein (EMC/2012), wt (MERS-CoV (isolate EMC/2012), UniProt K9N5Q8 18-1353). The assay is described as follows: cell-based or functional assay.
Regarding B1, the “IC50 against MERSpp” value is 0.0975 nM and the “IC50 against live virus (EMC2012)” value was 0.898 nM.
Taken in the same sequence, the figures for B2 were 0.066 nM and 1.01 nM.
Taken in the same sequence, the figures for B3 were 0.227 nM and 12 nM.
Taken in the same sequence, the figures for B4 were 0.0765 nM and 0.826 nM.
For B5, the “IC50 against MERSpp” value came out at 0.0643 nM and the “IC50 against live virus (EMC2012)” value came out at 6.7 nM.
Taken in the same sequence, the figures for B6 were 0.102 nM and 0.92 nM.
Taken in the same sequence, the figures for B7 were 0.134 nM and 2.39 nM.
The like results for B8 were, in that order, 0.0827 nM and 2.41 nM.
In the case of B9, the “IC50 against MERSpp” value was determined as 0.062 nM and the “IC50 against live virus (EMC2012)” value was determined as 0.505 nM.
Taken in the same sequence, the figures for B10 were 0.0873 nM and 1.37 nM.
Take B11: the “IC50 against MERSpp” value amounted to 0.0764 nM and the “IC50 against live virus (EMC2012)” value is 1.63 nM.
Taken in the same sequence, the figures for B12 were 0.0457 nM and 0.629 nM.
In the case of B13, the “IC50 against MERSpp” value was 0.151 nM and the “IC50 against live virus (EMC2012)” value was 2.42 nM.
Taken in the same sequence, the figures for B14 were 0.192 nM and 2.67 nM.

A further assay deals with MERS-RBD-mFc (MERS-CoV (isolate EMC/2012), UniProt K9N5Q8 367-606). The assay can be described thus: Octet BLI, MERS.mFc captured on the sensor, then mAb-1 applied.
Regarding B1, the “mAb-1 Binding (nm)” value amounted to 0.52 nm.
Regarding B2, the “mAb-1 Binding (nm)” value was 0.39 nm.
Take B3: the “mAb-1 Binding (nm)” value was 0.4 nm.
The same measure, in the same setting: the figure for B4 is 0.51 nm; for B5 it is 0.39 nm.
On the same count and under the same terms, the figure for B6 is 0.5 nm; for B7 it is 0.41 nm.
The same measure, in the same setting: to B8 belongs 0.46 nm; to B9, 0.54 nm; to B10, 0.46 nm.
Turning to B11, the “mAb-1 Binding (nm)” value turned out to be 0.42 nm.
The same measure, in the same setting: the figure for B12 is 0.6 nm.
In the case of B13, the “mAb-1 Binding (nm)” value was 0.38 nm.
The same measure, in the same setting: the figure for B14 is 0.56 nm.
